Patent US20230070731A1, “COMPOSITIONS FOR SMALL MOLECULE CONTROL OF PRECISE BASE EDITING OF TARGET NUCLEIC ACIDS AND METHODS OF USE THEREOF” (THE TRUSTEES OF THE UNIVERSITY OF PENNSYLVANIA, priority 2020, published 2023)
Each block holds one substance with its values, some of them ahead of it.

What was measured:
Assay in all cases: cell-based or functional assay
[1] = biological target: GFP11-AID*C (AID*-SPL2C) (human) (UniProt Q9GZX7)
[2] = biological target: AID′-seBE4max fragment containing FKBP12, the DNA deaminase C-terminus, nCas9, and two UGIs in series (human) (UniProt P62942)
[3] = biological target: evoA1-seBE4max fragment containing FKBP12, the DNA deaminase C-terminus, nCas9, and two UGIs in series (rat) (UniProt P62942)

in vitro deaminase activity on a labeled oligonucleotide substrate (EC50 of enzyme) (fold reduced from intact AID*) [1]: 4
Substance: AID*N-optGFP1-10 (AID*-SPL2N) (from UniProt Q9GZX7 1-72)

Substance: AID′-seBE4max fragment containing the DNA deaminase N-terminus and FRB (from UniProt Q9GZX7 1-72; P42345 2021-2113)
GFP^off cells by flow cytometry, targeting sgRNA, no rapamycin [2]: 7% | GFP^off cells by flow cytometry, targeting sgRNA, with rapamycin (200 nM) [2]: 35%

Substance: evoA1-seBE4max fragment containing the DNA deaminase N-terminus and FRB (from UniProt P38483 2-78; P42345 2021-2113)
fold induction of base editing by rapamycin across seven genomic loci [3]: 8.2 fold | on-target base editing across seven genomic loci (deep sequencing), no rapamycin [3]: 3% | on-target base editing across seven genomic loci (deep sequencing), with rapamycin [3]: 28%
